This is an account of results in PMC3481545 (Biochemistry, 2012).

Where a chain is given by its changes, count along the chain named. In names and notes the source's numbering stands.

The chains are these.
T1: BMP-7 (UniProt P18075 293-431)
T1 sequence (looked up): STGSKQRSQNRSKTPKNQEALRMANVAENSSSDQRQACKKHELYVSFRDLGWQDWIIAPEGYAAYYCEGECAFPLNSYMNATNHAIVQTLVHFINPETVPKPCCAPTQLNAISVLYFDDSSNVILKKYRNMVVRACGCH

B1: Chimera BAB: BMPR-II ECD with the ActR-IIB A-loop (domain or fragment)
chain: ASQNQERLCAFKDPYQQDLGIGESRISHENGTILCSKGSTCYGLWEKSKGDINLVKQGCWDDFNCYDRQCVVTTTPPSIQNGTYRFCCCSTDLCNVNFTENFPPPDTTPLSPPHSFNRDET
B2: human recombinant BMPR-II ECD, wild type (domain or fragment, UniProt Q13873 26-150, looked up)
chain: ASQNQERLCAFKDPYQQDLGIGESRISHENGTILCSKGSTCYGLWEKSKGDINLVKQGCWSHIGDPQECHYEECVVTTTPPSIQNGTYRFCCCSTDLCNVNFTENFPPPDTTPLSPPHSFNRDET
B3: BMPR-II ECD Y40Q (domain or fragment, human, UniProt Q13873 26-150, looked up)
chain: B2 chain with Y15Q
B4: BMPR-II ECD Y40P (domain or fragment, human, UniProt Q13873 26-150, looked up)
chain: B2 chain with Y15P
B5: GDF-5 (ligand, UniProt P43026 382-501, looked up)
chain: APLATRQGKRPSKNLKARCSRKALHVNFKDMGWDDWIIAPLEYEAFHCEGLCEFPLRSHLEPTNHAVIQTLMNSMDPESTPPTCCVPTRLSPISILFIDSANNVVYKQYEDMVVESCGCR
B6: BMPR-II ECD S107P (domain or fragment, human, UniProt Q13873 26-150, looked up)
chain: B2 chain with S82P
B7: BMPR-II ECD Y40G (domain or fragment, human, UniProt Q13873 26-150, looked up)
chain: B2 chain with Y15G
B8: BMPR-II ECD Y40R (domain or fragment, human, UniProt Q13873 26-150, looked up)
chain: B2 chain with Y15R
B9: BMPR-II ECD G47N (domain or fragment, human, UniProt Q13873 26-150, looked up)
chain: B2 chain with G22N

Common to all, as to assay: SPR
On the technique in general: Surface plasmon resonance follows binding to a sensor surface in real time, without labels.

For one assay, the target named is Activin (UniProt P08476 311-426).
The assay “GDF-5” deals with B5.
The next assay addresses T1, BMP-7.
Assay [1] deals with B2.
In the assay “BMPR-II ECD Y40R” the target is B8.
The assay “BMPR-II ECD Y40P” has as its target B4.
The assay “BMPR-II ECD G47N” deals with B9.
The assay “BMPR-II ECD Y40G” addresses B7.
The target in the assay “BMPR-II ECD S107P” is B6.
For the assay “BMPR-II ECD Y40Q”, the target named is B3.

For orientation: Kd means the constant that tells how readily two partners part at equilibrium.

As for B1, the Kd with Activin worked out at 5 µM; in the assay with GDF-5, 197 µM; in the assay with BMP-7 it was 59 µM. B2 gave a dissociation constant (Kd) with BMP-7 of 135 µM. Same read-out and setting: for B3 the value was 129 µM; for B4, 157 µM. In the case of B5, the Kd came out at 221 µM in assay [1]; 117 µM in the assay with BMPR-II ECD Y40R; 200 µM with BMPR-II ECD Y40P; 136 µM with BMPR-II ECD G47N; 123 µM with BMPR-II ECD Y40G; 90 µM in the assay with BMPR-II ECD S107P. The molecule also returned a Kd in the assay with BMPR-II ECD Y40Q of 175 µM. In the assay with BMP-7, B6 yielded a Kd of 43 µM. On the same count and under the same terms, for B7 the value was 138 µM; for B8, 117 µM; for B9, 92 µM.
